Data as given in patent publication US20110300138A1 (published 2011).
Like-named read-outs stand apart in the source and are kept apart here. One block for each substance: values may come before it.

Assays:
[1] = biological target: thyroid stimulating hormone receptor (full length human TSHR) (human) (UniProt P16473); assay: ELISA, inhibition of TSH-biotin binding to TSHR coated wells; 100 µg/mL, diluted in HBD serum pool
[2] = biological target: human thyroid stimulating hormone receptor (TSHR), full length (human) (UniProt P16473); assay: 125I-K1-70 Fab (competitor) binding to TSHR coated tubes; test sample 10 µg/mL in assay buffer
[3] = biological target: full length wild type human TSHR (human) (UniProt P16473); assay: TSHR260-AP bridge ELISA, wild type TSHR on wells; IgG at 1 µg/mL in HBD
[4] = biological target: full length wild type human TSHR (human) (UniProt P16473); assay: TSHR260-AP bridge ELISA, wild type TSHR on wells; IgG at 0.005 µg/mL in HBD
[5] = biological target: full length human TSHR with mutation Arg255 Asp (human) (UniProt P16473); assay: TSHR260-AP bridge ELISA, Arg255 Asp TSHR on wells; IgG at 10 µg/mL in HBD
[6] = biological target: TSH receptor (TSHR), full length human, coated on tubes (human) (UniProt P16473); assay: inhibition of 125I-TSH binding to TSHR coated tubes; 0.1 µg/mL, diluted in HBD serum pool
[7] = biological target: full length human TSHR with mutation Arg255 Asp (human) (UniProt P16473); assay: TSHR260-AP bridge ELISA, Arg255 Asp TSHR on wells; IgG at 1 µg/mL in HBD
[8] = biological target: full length wild type human TSHR (human) (UniProt P16473); assay: TSHR260-AP bridge ELISA, wild type TSHR on wells; IgG at 0.01 µg/mL in HBD
[9] = biological target: full length wild type human TSHR (human) (UniProt P16473); assay: TSHR260-AP bridge ELISA, wild type TSHR on wells; IgG at 0.1 µg/mL in HBD
[10] = biological target: thyroid stimulating hormone receptor (TSHR), full length, coated on tubes (human) (UniProt P16473); assay: inhibition of 125I-TSH binding, TSHR coated tubes; antibody 10 µg/mL in assay buffer
[11] = biological target: human thyroid stimulating hormone receptor (TSHR), full length (human) (UniProt P16473); assay: 125I-K1-70 Fab (competitor) binding to TSHR coated tubes; test sample 100 µg/mL in assay buffer
[12] = biological target: human thyroid stimulating hormone receptor (TSHR), full length (human) (UniProt P16473); assay: 125I-K1-70 Fab (competitor) binding to TSHR coated tubes; test sample 1 µg/mL in HBD serum
[13] = biological target: human thyroid stimulating hormone receptor (TSHR), full length (human) (UniProt P16473); assay: 125I-K1-70 Fab (competitor) binding to TSHR coated tubes; test sample 0.1 µg/mL in HBD serum
[14] = biological target: full length human TSHR with mutation Arg255 Asp (human) (UniProt P16473); assay: TSHR260-AP bridge ELISA, Arg255 Asp TSHR on wells; IgG at 0.01 µg/mL in HBD
[15] = biological target: wild type TSHR expressed in CHO cells (human) (UniProt P16473); assay: cell-based or functional assay
[16] = biological target: TSHR with Asp232 mutated to Ala expressed in CHO cells (human) (UniProt P16473); assay: cell-based or functional assay
[17] = biological target: wild type TSHR expressed in CHO cells (human) (UniProt P16473); assay: cell-based or functional assay; remark: listed apart in the source
[18] = biological target: TSHR with Arg274 mutated to Ala, expressed in CHO cells (human) (UniProt P16473); assay: cell-based or functional assay
[19] = biological target: TSHR260-alkaline phosphatase (TSHR260-AP) (human) (UniProt P05187); assay: TSHR260-AP bridge ELISA, full length TSHR on wells; 100 µg/mL, diluted in assay buffer
wild type TSHR (human) = wild type TSHR (human) (UniProt P16473); assay: cell-based or functional assay
[20] = biological target: TSHR with Tyr206 mutated to Ala (human) (UniProt P16473); assay: cell-based or functional assay
[21] = biological target: TSHR with Arg255 mutated to Asp expressed in CHO cells (human) (UniProt P16473); assay: cell-based or functional assay
[22] = biological target: wild type TSHR expressed in CHO cells (human) (UniProt P16473); assay: cell-based or functional assay; remark: listed apart in the source
[23] = biological target: wild type TSHR expressed in CHO cells (human) (UniProt P16473); assay: cell-based or functional assay; remark: listed apart in the source
[24] = biological target: TSHR with His105 mutated to Ala (expressed in CHO cells) (human) (UniProt P16473); assay: cell-based or functional assay

Inhibition of binding (%) [1]: 84% | Inhibition of binding (%) [2]: 48% | Mean absorbance at 405 nm (absorbance at 405 nm) [3]: 0.329 | Mean absorbance at 405 nm (absorbance at 405 nm) [4]: 0.006 | Mean absorbance at 405 nm (absorbance at 405 nm) [5]: 0.534 | Inhibition of binding (%) [6]: 30.5% | Mean absorbance at 405 nm (absorbance at 405 nm) [7]: 0.322 | Mean absorbance at 405 nm (absorbance at 405 nm) [8]: 0.011 | Mean absorbance at 405 nm (absorbance at 405 nm) [9]: 0.102 | Inhibition of binding (%) [10]: 58.7% | Inhibition of binding (%) [11]: 62.7% | Inhibition of binding (%) [12]: 38.8% | Inhibition of binding (%) [13]: 12.7% | Mean absorbance at 405 nm (absorbance at 405 nm) [14]: -0.004
Substance: 9D33 IgG (antibody)

% inhibition of TSH stimulation; 5B3 10 µg/mL [15]: 0% | % inhibition of TSH stimulation; 5B3 100 µg/mL [15]: 0% | % inhibition of TSH stimulation; 5B3 10 µg/mL [16]: 10% | % inhibition of TSH stimulation; 5B3 100 µg/mL [16]: 6% | Mutated/wild type (%) of cyclic AMP produced; 5B3 10 µg/mL + TSH 3 ng/mL [16]: 59% | Mutated/wild type (%) of cyclic AMP produced; 5B3 100 µg/mL + TSH 3 ng/mL [16]: 58% | % inhibition of TSH stimulation; 5B3 10 µg/mL [17]: 0% | % inhibition of TSH stimulation; 5B3 100 µg/mL [17]: 0% | Cyclic AMP produced; 5B3 10 µg/mL + TSH 3 ng/mL [17]: 116 pmol/mL | Cyclic AMP produced; 5B3 10 µg/mL + TSH 3 ng/mL (second row printed with 10 µg/mL) [17]: 121 pmol/mL | % inhibition of TSH stimulation; 5B3 10 µg/mL [18]: 0% | % inhibition of TSH stimulation; 5B3 100 µg/mL [18]: 4% | Cyclic AMP produced; 5B3 10 µg/mL + TSH 3 ng/mL [18]: 106 pmol/mL | Cyclic AMP produced; 5B3 10 µg/mL + TSH 3 ng/mL (second row printed with 10 µg/mL) [18]: 95.3 pmol/mL | Mutated/wild type (%) of cyclic AMP produced; 5B3 10 µg/mL + TSH 3 ng/mL [18]: 92% | Mutated/wild type (%) of cyclic AMP produced; 5B3 10 µg/mL + TSH 3 ng/mL (second row printed with 10 µg/mL) [18]: 79% | Mean absorbance at 405 nm (absorbance at 405 nm) [19]: -0.011 | Inhibition of binding (%) [6]: 4.4% | % inhibition of TSH stimulation, 5B3 100 µg/mL, wild type TSHR (wild type TSHR (human)): 0% | Cyclic AMP produced (pmol/mL), 5B3 10 µg/mL + TSH 3 ng/mL, wild type TSHR (wild type TSHR (human)): 94.5 pmol/mL | Cyclic AMP produced (pmol/mL), 5B3 100 µg/mL + TSH 3 ng/mL, wild type TSHR (wild type TSHR (human)): 101 pmol/mL | % inhibition of TSH stimulation, 5B3 10 µg/mL, mutated TSHR [20]: 10% | % inhibition of TSH stimulation, 5B3 100 µg/mL, mutated TSHR [20]: 9% | Cyclic AMP produced (pmol/mL), 5B3 10 µg/mL + TSH 3 ng/mL, mutated TSHR [20]: 74.6 pmol/mL | Cyclic AMP produced (pmol/mL), 5B3 100 µg/mL + TSH 3 ng/mL, mutated TSHR [20]: 75.2 pmol/mL | Mutated/wild type (%) of cyclic AMP produced; 5B3 10 µg/mL + TSH 3 ng/mL [20]: 79% | Mutated/wild type (%) of cyclic AMP produced; 5B3 100 µg/mL + TSH 3 ng/mL [20]: 74% | % inhibition of TSH stimulation; 5B3 10 µg/mL [21]: 0% | % inhibition of TSH stimulation; 5B3 100 µg/mL [21]: 0% | Cyclic AMP produced; 5B3 10 µg/mL + TSH 3 ng/mL [21]: 59.4 pmol/mL | Cyclic AMP produced; 5B3 100 µg/mL + TSH 3 ng/mL [21]: 62.2 pmol/mL | Mutated/wild type (%) of cyclic AMP produced; 5B3 10 µg/mL + TSH 3 ng/mL [21]: 86% | Mutated/wild type (%) of cyclic AMP produced; 5B3 100 µg/mL + TSH 3 ng/mL [21]: 75% | % inhibition of TSH stimulation; 5B3 10 µg/mL [22]: 0% | % inhibition of TSH stimulation; 5B3 100 µg/mL [22]: 0% | Cyclic AMP produced; 5B3 10 µg/mL + TSH 3 ng/mL [22]: 69.2 pmol/mL | Cyclic AMP produced; 5B3 100 µg/mL + TSH 3 ng/mL [22]: 83.4 pmol/mL | % inhibition of TSH stimulation; 5B3 10 µg/mL [23]: 2% | Cyclic AMP produced; 5B3 10 µg/mL + TSH 3 ng/mL [23]: 91.6 pmol/mL | Cyclic AMP produced; 5B3 100 µg/mL + TSH 3 ng/mL [23]: 134 pmol/mL | % inhibition of TSH stimulation; 5B3 10 µg/mL [24]: 0% | % inhibition of TSH stimulation; 5B3 100 µg/mL [24]: 0% | Cyclic AMP produced; 5B3 10 µg/mL + TSH 3 ng/mL [24]: 75.2 pmol/mL | Cyclic AMP produced; 5B3 100 µg/mL + TSH 3 ng/mL [24]: 66.7 pmol/mL | Mutated/wild type (%) of cyclic AMP produced; 5B3 10 µg/mL + TSH 3 ng/mL [24]: 82% | Mutated/wild type (%) of cyclic AMP produced; 5B3 100 µg/mL + TSH 3 ng/mL [24]: 50%
Substance: 5B3 IgG (antibody)
